The data set has as its target IRAV (FLJ11286) (UniProt Q9NUL5 1-269). In words: fluorescence polarization; FP: oligos in 100 mM KCl, 20 mM HEPES pH 7.4 (heated to 85 C, slow cooled); protein purified in 200 mM NaCl, 20 mM HEPES pH 7.4; assay temperature not stated. Particulars: protein: recombinant; tags: N-terminal His-MBP; label: 3'-FAM; single strand. In general terms: Polarisation of emitted light reports the rotation of a fluorescent probe.

Chain of IRAV (FLJ11286) (Q9NUL5 1-269): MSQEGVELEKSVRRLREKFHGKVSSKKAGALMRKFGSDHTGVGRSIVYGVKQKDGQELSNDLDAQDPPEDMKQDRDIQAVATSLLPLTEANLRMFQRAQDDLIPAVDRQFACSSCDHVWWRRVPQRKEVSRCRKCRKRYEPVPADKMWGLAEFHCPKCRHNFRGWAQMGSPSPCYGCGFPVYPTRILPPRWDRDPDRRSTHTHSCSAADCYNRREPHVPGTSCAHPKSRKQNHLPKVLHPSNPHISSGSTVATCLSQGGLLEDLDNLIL

Regarding AGTTGTTAGTCTACGTGGAC (ssDNA) [ssDNA 20-mer], the binding result is on record as “binds”. Under AGUUGUUAGUCUACGUGGAC (ssRNA) [ssRNA 20-mer] stands “binds”.

Values taken from publication PMC5309953, “IRAV (FLJ11286), an Interferon-Stimulated Gene with Antiviral Activity against Dengue Virus, Interacts with MOV10”.
